Data on nine molecules can be found in PMC7498356.

The target of data set [1] is T1, TDRD5 LOTUS domain 3 (L3) (Mus musculus, UniProt Q5VCS6 291-365).
T1 sequence: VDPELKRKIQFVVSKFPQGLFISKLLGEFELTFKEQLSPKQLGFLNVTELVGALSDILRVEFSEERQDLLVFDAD
The data set can be described thus: pull-down.

Data set [2] has as its target T1, TDRD5 LOTUS domain 3 (L3). Nature of the data set: pull-down, ELISA. (An ELISA detects its analyte on a solid surface through an enzyme-linked reagent.)
In data set [3] the target is T2, TDRD5 LOTUS domain 1 (L1) (Mus musculus, UniProt Q5VCS6 7-80).
T2 sequence: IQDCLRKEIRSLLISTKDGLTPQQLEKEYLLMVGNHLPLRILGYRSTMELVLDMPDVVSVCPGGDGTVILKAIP
The data set can be described thus: pull-down.

In data set [4] the target is T3, TDRD5 LOTUS domain 2 (L2) (Mus musculus, UniProt Q5VCS6 122-197).
T3 sequence: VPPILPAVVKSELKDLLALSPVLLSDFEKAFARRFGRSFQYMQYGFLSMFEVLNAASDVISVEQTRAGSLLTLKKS
The data set can be described thus: pull-down.

Data set [5] concerns the target T4, AT3G52980-LOTUS (plant, UniProt Q9LF94 199-282).
T4 sequence: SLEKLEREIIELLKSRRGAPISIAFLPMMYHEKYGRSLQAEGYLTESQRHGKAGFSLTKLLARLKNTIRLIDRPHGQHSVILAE
The data set can be described thus: ELISA.

Data set [6] has as its target T5, human MARF1 L7 (Homo sapiens, UniProt Q9Y4F3 1411-1485).
T5 sequence: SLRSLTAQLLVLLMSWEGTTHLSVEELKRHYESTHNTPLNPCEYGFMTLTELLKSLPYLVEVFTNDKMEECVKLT
The data set can be described thus: ELISA.

The target of data set [7] is T6, Oskar LOTUS (eLOTUS) (Drosophila, UniProt P25158 139-241).
T6 sequence: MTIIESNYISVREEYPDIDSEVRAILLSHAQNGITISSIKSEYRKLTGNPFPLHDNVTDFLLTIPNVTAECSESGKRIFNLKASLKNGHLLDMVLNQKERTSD
The data set can be described thus: ELISA.

Data set [8] has as its target T7, TDRD7 L2 (Mus musculus, UniProt Q8K1H1 222-291).
T7 sequence: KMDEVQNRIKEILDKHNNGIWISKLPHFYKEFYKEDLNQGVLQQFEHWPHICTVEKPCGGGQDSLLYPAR
Nature of the data set: ELISA.

For data set [9], the target named is T8, human TDRD5 L1 (Homo sapiens, UniProt Q8NAT2 7-80).
T8 sequence: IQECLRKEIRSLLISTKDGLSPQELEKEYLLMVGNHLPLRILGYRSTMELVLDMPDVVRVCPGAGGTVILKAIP
Nature of the data set: ELISA.

Data set [10] has as its target human TDRD7 L1 (Homo sapiens, UniProt Q8NHU6 3-76). Nature of the data set: ELISA.
Data set [11] concerns the target T9, Tejas LOTUS (Drosophila, UniProt A1Z9P1 6-79).
T9 sequence: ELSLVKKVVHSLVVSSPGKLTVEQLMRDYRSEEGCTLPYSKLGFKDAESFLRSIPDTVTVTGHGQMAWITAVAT
The data set can be described thus: ELISA.

The target in data set [12] is T10, TDRD7 L3 (Mus musculus, UniProt Q8K1H1 325-394).
T10 sequence: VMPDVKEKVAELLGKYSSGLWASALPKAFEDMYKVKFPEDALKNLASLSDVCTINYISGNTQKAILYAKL
The data set can be described thus: ELISA.

The target in data set [13] is T11, TDRD7 L1 (Mus musculus, UniProt Q8K1H1 3-76).
T11 sequence: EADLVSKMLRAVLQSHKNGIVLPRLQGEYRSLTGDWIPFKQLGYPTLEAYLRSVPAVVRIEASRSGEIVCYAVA
The data set can be described thus: ELISA.

The target in data set [14] is T12, TP0894-LOTUS (Treponema pallidum subsp. pallidum str. …, UniProt O83864 178-253).
T12 sequence: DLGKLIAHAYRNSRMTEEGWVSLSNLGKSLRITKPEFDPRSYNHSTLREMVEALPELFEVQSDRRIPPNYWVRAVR
The data set can be described thus: ELISA.

The target in data set [15] is T13, human MARF1 L1 (Homo sapiens, UniProt Q9Y4F3 875-949).
T13 sequence: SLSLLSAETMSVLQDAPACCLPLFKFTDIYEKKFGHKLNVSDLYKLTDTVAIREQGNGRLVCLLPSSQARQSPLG
Nature of the data set: ELISA.

Sequence of human TDRD7 L1 (Q8NHU6 3-76): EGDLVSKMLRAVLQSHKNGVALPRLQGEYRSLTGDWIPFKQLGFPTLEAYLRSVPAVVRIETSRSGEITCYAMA

With GUGUGUGUGUGUGUGUGUGUGUGUGUGUGU (ssRNA) [Poly(GU)], the binding result in [1] is listed as “no binding”.
Turning to AGGAGGGAAGGGGAGGGGAGGG (structured_RNA) [Cluster G4-2 RNA], the binding result in [2] was “no binding”.
For CACACACACACACACACACACACACACACA (ssRNA) [Poly(CA)], the binding result in data set [3], in data set [4] and in data set [1] was “no binding” in each case.
AGGACCGAAGCCGAGCCGAGCC (ssRNA) [Cluster G4-2 mut RNA]: the binding result in data set [3], in data set [4] and in [1] was “no binding” throughout.
CUCUCUCUCUCUCUCUCUCUCUCUCUCUCU (ssRNA) [Poly(CU)]: the binding result in data set [3], in data set [4] and in data set [1] was “no binding” each time.
Take UUACCGUUACCGUUACCGUUACCG (ssRNA) [TERRA G4 mut RNA]: the binding result in data set [5], in data set [6], in data set [7], in data set [8], in data set [9] and in data set [10] was “no binding” throughout. Besides, the binding result in data set [11], in [12], in data set [13], in [14], in [15] and in data set [3] was “no binding” each time. In addition, the binding result in data set [4] and in data set [1] was “no binding” in each case.
GGUCCGCAGCCGAGUCCGGGUCCG (ssRNA) [Cluster G4-1 mut RNA]: the binding result in data set [5], in [6], in data set [7], in data set [8], in data set [9] and in data set [10] was “no binding” in each case. The binding result in data set [11], in data set [12], in data set [13], in [14], in data set [15] and in data set [3] was “no binding” throughout. For the same molecule, the binding result in data set [4] and in [1] was “no binding” in each case.
For the molecule GAGAGAGAGAGAGAGAGAGAGAGAGAGAGA (ssRNA) [Poly(GA)], the binding result in data set [1] is “no binding”.
For the molecule UUAGGGUUAGGGUUAGGGUUAGGG (structured_RNA) [TERRA G4 RNA], the binding result in data set [5], in [6], in data set [7], in data set [8], in data set [9] and in [10] was “binds” throughout. The binding result in [11] was “binds”; in [12], “binds”; in [13] it was “binds”; in data set [14], “binds”; in data set [15], “binds”; in data set [2], “no binding”.
